Values quoted from earlier work, collected in publication PMC4623992.

Molecular target: TLR4 (Homo sapiens) (UniProt O00206)
Chain of UniProt O00206 (O00206 24-631): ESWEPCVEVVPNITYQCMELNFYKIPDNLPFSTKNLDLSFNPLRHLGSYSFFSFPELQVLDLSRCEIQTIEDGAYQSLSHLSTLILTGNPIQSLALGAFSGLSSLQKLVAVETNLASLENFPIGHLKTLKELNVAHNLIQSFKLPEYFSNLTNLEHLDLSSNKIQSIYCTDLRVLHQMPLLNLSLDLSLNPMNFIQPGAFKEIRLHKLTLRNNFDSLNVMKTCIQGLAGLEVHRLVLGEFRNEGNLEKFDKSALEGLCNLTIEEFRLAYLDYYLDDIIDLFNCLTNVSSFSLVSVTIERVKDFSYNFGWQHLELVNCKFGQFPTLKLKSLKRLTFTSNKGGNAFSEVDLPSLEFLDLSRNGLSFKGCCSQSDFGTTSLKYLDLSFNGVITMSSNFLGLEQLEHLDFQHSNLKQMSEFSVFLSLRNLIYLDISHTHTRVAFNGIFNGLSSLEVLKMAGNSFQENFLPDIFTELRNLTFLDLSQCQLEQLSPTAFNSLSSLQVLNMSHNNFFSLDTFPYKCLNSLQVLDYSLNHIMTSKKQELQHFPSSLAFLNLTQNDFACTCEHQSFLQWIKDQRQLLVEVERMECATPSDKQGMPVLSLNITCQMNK

For MD-2 (from UniProt Q9Y6Y9), the Kd is given as 0.012 µM.
